The values that follow come from the nanobody polyreactivity screen of Harvey et al. (2022).

This series can be described thus: yeast display, Sf9 membrane polyspecificity reagent, FACS + sequencing; frameworks hold sequencing errors. In a few lines:
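Genes from sorted yeast were amplified by colony PCR, read by MiSeq 2 × 250 sequencing and filtered on CDR length. These cells carried a synthetic nanobody library in Saccharomyces cerevisiae BJ5465 and were sorted by FACS into low and high (top ~1%) gates on anti-HA and streptavidin fluorescence. Polyreactivity is labelled according to the gate of origin.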
On to “QVQLVESGGGLVQAGGRLRLSCASTGLTLHGNAMGWYRQAPGKERELVATISSSGGSTFYADSVKGRFTISRDNAKNTDYLQMNSLKPEDTAVYYCNADAPYSDDYYVRFDYWGQGTQVTVSS”, for which the “polyreactivity (PSR sort gate)” value is on record as “low polyreactivity”.
The entry for “QVQLVESGGGLVQAGGRLRLSCPASGGTFYIYVMGWYRQAPGKESELVAAITSGDSTNYADSVKGRFTISRDNAKNTVYLQMNSLKPEDTAVYYCAVGITQDPLMYYPFFFHYDYWGQGTQVTVSS” is “low polyreactivity”; for “QVQLVESGGGLVQAGGRLRLSFAASGSIFVFYVMGWYRQAHGKERELVAAISNSGSSTYYADSVKGRFTISRDNAKNTVYLQINSLKPEDTAVYYCAAEYKIPVGFDYWGQGTQVTVSS” it is “low polyreactivity”; for “QVQLVESGGGLVQAGGRLRLSFAASGSIFYRNVLGWYREAPGKERELVATISRGGTTNYADSVKGRFTISRDNAKNTVYLQMNSLKPEDTAVYYCAAPIGDVYVGKGYDSWGQGTQVTVSS” it is “low polyreactivity”.
The entry for “QVQLVESGGGLVQAGGRLRLSSAASGFIFWYYAMGWYRQEPGKERELVAAITSGGNTNYADSVKGRFTISRDNAKNTVYLQMNSLKPEDTAVYYCATGRASGREHDSWGQGTQVTVSS” is “low polyreactivity”; for “QVQLVESGGGLVQAGGRLRLTCAASGINFRSYAMGWYRQATGKERELVAGISLSGGSTYYADSVKGRFTISRDNAKNSDYLQMNSLKPEDTAVYYCATRYHYFGALRYGYCGQGTQVTVSS” it is “high polyreactivity”; for “QVQLVESGGGLVQAGGRLRLTCAASGRIFFWYVMGWYRQATGKERELVAAISSGGRTYYADAVKGRFTISRDNAKNTVYLQMNSLKPEDTAVYYCNVEEYHVRADIGYSNYGYWGQGTQVTVSS” it is “low polyreactivity”.
Under “QVQLVESGGGLVQAGGRLRLTCAASGSTLPLNAMGWYRQAPGKEREFVASITYSGGNTYYADSVKGRFTISRDNAKNTVYLQMNSLKPEDTAVYYCAVDEYGIWVGWVPYATFGMNYWGQGTQVTVSS” stands “high polyreactivity”; under “QVQLVESGGGLVQAGGRLRLTCSASGFIIRFYAMGWYRQATGKEREFVASISRRAGRTYYADSVKGRFTISRDNAKNTVYLQMNSLKPEDTAVFYCAASGFGSFRYSSTYDYWGQGSQVTVSS”, “high polyreactivity”; under “QVQLVESGGGLVQAGGRLSLSCAASGSIFEKNAIGWYIQAPGKERELFAAISSSGGRTNYADSVKGRYTISRDNAKITVYFQMNSLKPEDTAVYYCAAYRRGHRYPGYEYWGQGTQVTVSS”, “high polyreactivity”.
On to “QVQLVESGGGLVQAGGRLSLSCAASGSIFRNNTMGWYRQAPGKERELVAAISGRGTPTSYADSVKGRFTISRDNAKNTVYLQMNSLKPEDTAVYYCAAVYYWRPGWYVRFDYWGQGTQVTVSS”, for which the “polyreactivity (PSR sort gate)” value is reported as “low polyreactivity”.
For the sequence “QVQLVESGGGLVQAGGSHGLSCAASGSTFYYNAMGWYRPAPGKERELVARISRSGGSTYADSVKGRFTISRDNAKNTVYLLMNSLKPEDTAVYYCNADAYGTPEFTSYAVRYDHWGQGTQETVSS”, the “polyreactivity (PSR sort gate)” value is given as “low polyreactivity”.
The entry for “QVQLVESGGGLVQAGGSHRLRCAASGITLLLNAMGWYRQAPGKERELVAAISEGGGSTYYAHSVKGRFTISRDNAKNTVYLQMNSLKPEDTAVYYCNADRVYRVPSEYDSWGQGTQVTVSS” is “low polyreactivity”; for “QVQLVESGGGLVQAGGSHRLSCAASGFIFPYYTMGRYRQAPEKERELVAANRYSAGRTYYADSVKGRFTISRDIAKNTVYLQLNSLKPVDTAVYYCNAVSSGDMDYWGQGTQVTVSS” it is “high polyreactivity”.
As to “QVQLVESGGGLVQAGGSHRLSCAASGFTFWDYAMGWYRKAPGKEREMVAAITSRGTRTYYADSVKGRFTISRDNAKNTVYLQMNSLKPEDTDVYYCATAIPDPDYIHNYWGQGTQVTVSS”, the “polyreactivity (PSR sort gate)” value was “high polyreactivity”.
The entry for “QVQLVESGGGLVQAGGSHRLSCAASGITFRRNTMGWYRQAPGKERELVATISWRGGNTFYADSVKGRFTFSRDNAKNTVYLQMNSLKPEDTAVYYCNARGYGTLIVRRERMDYWGQGTQVTVSS” is “high polyreactivity”; for “QVQLVESGGGLVQAGGSHRLSCAASGITLGRYAMGWYRQAPGKEREFVAAISSWSGGSTTYADSVKGRFTISRDNAKNTVYLQMNSLKPEDTAVYYWNARRYYGRYYLGHSDYDYWGQGTQVTVSS” it is “high polyreactivity”; for “QVQLVESGGGLVQAGGSHRLSCAASGLTFFPYAMGWYRQAPGKERELVAAITTSDGTTYYADSVKGRFTISRDNAKNTVYLQMNSLKPEDTAVYYCAAVYSPRSVWWYDYWGQGTQVTVSS” it is “low polyreactivity”.
The entry for “QVQLVESGGGLVQAGGSHRLSCAASGLTFYQYSMGWYRQAPGKERELVAAISKSAGSTYYADSVKGRFTISRDNAKNTVYLQMNSLKPEDTAVYYCAARVLRLRYDYWGQGTQVTVSS” is “high polyreactivity”; for “QVQLVESGGGLVQAGGSHRLSCAASGNAMGCYRQAPGKERELVAAITYGGTTTYYADSVKGRFTISRDNAKNTVYLQMNSLKPEDTAVYYCAADYVFVATPLRYDYWGQGTQVTVSS” it is “low polyreactivity”.
For “QVQLVESGGGLVQAGGSHRLSCAASGNTFPLYAMGWYRQAPGKERELVAAISQRGGSTYYADSVKGRFTISRDNAKNTVYLQMNSLKPEDTAVYYCAATWADEYQYRRYYYWGHGTQVTVSS”, the “polyreactivity (PSR sort gate)” value was “high polyreactivity”.
As to “QVQLVESGGGLVQAGGSHRLSCAASGRIFSVNAMGWYRQAPGKERELVASISWSGGSTYYADSVKGRFTISRDNAKNPVYLQMNSLKPEDTAVYYCNARIDSYGLDFDYWGQGTQVTVSS”, the “polyreactivity (PSR sort gate)” value was “low polyreactivity”.
Consider “QVQLVESGGGLVQAGGSHRLSCAASGRTFRRNTMGWYRQAPGKERELVAAISSSGSSTYYADSVKGRFTISRDNAKNSVYLQMNSLKPEDTAVYYCAATGYPRFGYWGQGTQVTVSS”, for which the “polyreactivity (PSR sort gate)” value was “high polyreactivity”.
For “QVQLVESGGGLVQAGGSHRLSCAASGRTFRYYTMGWYRQAPGKEREFVAAISSTGGTYYADSVKGRFTISRDNAKNTVYLQMNSLKPEDTAVYYCAKVYFWGALSPDKYDEDYWGQGTQVTVSS”, the “polyreactivity (PSR sort gate)” value is reported as “low polyreactivity”.
The entry for “QVQLVESGGGLVQAGGSHRLSCAASGRTFSPNAMGWYRQAPGKERELVAAISYRSYRTYYADSVKGRFTISRDKAKNTVYLQMNSLKPEDTAVYYCNADRTRGFQRYDYWGQGTQVTVSS” is “high polyreactivity”.
Under “QVQLVESGGGLVQAGGSHRLSCAASGRTFSPYVMGWSREAPGKEREYVARITWSGGSTYYADSVKGRFTISRDNAMYTVYLQMNSLKPEDTAVYYCNARGVFYVYKHDYWGQGTQVTVSS” stands “high polyreactivity”; under “QVQLVESGGGLVQAGGSHRLSCAASGRTFWKYVMGWYRQAPGTERELVAVISRPAGSTYYADSVKGRFTISRHNEKNTVYLQMNSLKPEDTAVYYCAKRPKNKPVLGDYDHWGQGTQVTVSS”, “low polyreactivity”.
The entry for “QVQLVESGGGLVQAGGSHRLSCAASGRTFWYTMGWYRQAPGKERELVAAITWSGGSTYYADSVKGRFTISRDNAMNTVYLQMNSLNPEDTAVYYWNAADYQLWFGYDYWGQGTQVTVSS” is “low polyreactivity”; for “QVQLVESGGGLVQAGGSHRLSCAASGSIFKDNAMGWYRQAPGKERELVAAITSGASTNYADSVKGRFTMSRDNAKNTVYLQMNSLKPEDTAVYYCAAGTRPTRFVGTKYDYWGQGTQVTVSS” it is “low polyreactivity”.
Turning to “QVQLVESGGGLVQAGGSHRLSCAASGSIFRRYAMGWYRQAPGKERELVAAIDSGGNTYADSVKGRFTISRDNAKNTVYLQMISLQPEDTAVYYCSADGGEFSSYGYWGQGTQVTVSS”, the “polyreactivity (PSR sort gate)” value is on record as “low polyreactivity”.
Under “QVQLVESGGGLVQAGGSHRLSCAASGSIFRWYAMGWYRQAPGKERELVAAITSGGGTNYADSVKGRFTISRDNAKNTVYIQMNCLKPEDTAVYYCNAAAWLRWGYRGGFWRYDYWGQGTQVTVSS” stands “high polyreactivity”.
In the case of “QVQLVESGGGLVQAGGSHRLSCAASGSIFSYYAMGWYRPAPGKERELVAAISWGDDSTYYAASVKGRFTISRDNEKNTVYLHMNSLKPEDTAVYYCAADRVGWYRTFDYWGQGSQVTVSS”, the “polyreactivity (PSR sort gate)” value is given as “low polyreactivity”.
Under “QVQLVESGGGLVQAGGSHRLSCAASGSIFYVNAMGWYRQSPGKERELVAAINRGGVSTYYADSVKGRFTISRDNAKNTVYLLMNSLKPEDTAVYYCATDFYLSTYSHYVWLYGYEFYYWGQGTQVTVSS” stands “low polyreactivity”.
The entry for “QVQLVESGGGLVQAGGSHRLSCAASGSILEIYAMGWYRQAPGKEREFVASISWDVSSTYYADSVKGRFTISRDNAKNTVYLQMYSLKPEDPAVYYCATSLVWGLYDWYYDLSAAFDYWGQGTQVTVSS” is “low polyreactivity”; for “QVQLVESGGGLVQAGGSHRLSCAASGSNAMGWYRQAHGKERELVAVITGGGSTHYADSVKGRYTISRDNAKNTVYLLMNSLKAEVTAVYYCAAVYWHSRGKFADIAVDYWGQGTQVTVSS” it is “low polyreactivity”.
Under “QVQLVESGGGLVQAGGSHRLSCAASGSTFTKNAMGWYRQAPGKERELVATISSGGYTNYADSVKGRFTISRDNAKNSVYLQMNSLKPEDTAVYYCNAVYRYRTRREYGYWGQGTQVTVSS” stands “high polyreactivity”.
As to “QVQLVESGGGLVQAGGSHRLSCAASGSTFYYYAMGWYRQAPGKERELVAAISKSGGRTYYADSVKGRFTFSRDNAKNTVYLQMNSLKPEDTAVYYCNAVQYLNGYDYWGQGTQVTVSS”, the “polyreactivity (PSR sort gate)” value is “high polyreactivity”.
Under “QVQLVESGGGLVQAGGSHRLSCADSGRTFRTYAMGWYRQAPGKERELVAAITTSGSSTYYADSVKGRFTISRDNAKNTVYLQMNSLKPEDTAVYYCAAARSAIVPGYYSWGQGTQVTVSS” stands “low polyreactivity”.
Regarding “QVQLVESGGGLVQAGGSHRLSCASSGRTFYRNAMGWYRQPPGKERELVAAISSGTSTNYADSVKGRFTISRDNAKNTVYLQMNSLKPEDTAVYYCAKERPRGAPAYYSRIYDYWGQGTQVTVSS”, the “polyreactivity (PSR sort gate)” value is reported as “high polyreactivity”.
The entry for “QVQLVESGGGLVQAGGSHRLSCASSGSTFLPNAMGWYRQPPGKERELVAAITNSGGNTYADSVKGRFTISRDNAKNTVYLEMNSLKPEDTAVYYCNARFSPTGWARGNDYWGQGTQVTVSS” is “low polyreactivity”.
